{"source": "the DeepSol protein solubility set", "data": [{"test": "soluble on expression in E. coli; label from the status in PepcDB or PDB records", "values": [{"sequence": "MDSRIAIYVLVSASLLYLVNCHKLVHYFNLKINGSDITNTADILLDNYPIMTFDGKDIYPSIAFMVGNKLFLDLYKNIFVEFFRLFRVSVSSQYEELEYYYSCDYTNNRPTIKQHYFYNGEEYTEIDRSKKATNKNSWLITSGFRLQKWFDSEDCIIYLRSLVRRMEDSNKNSKKT", "soluble on expression in E. coli": "not soluble"}, {"sequence": "MFPILETDRLILRQITDQDAEAIFACFSNDEVTRYYGLENMESIEQAISMIQTFAALYQEKRGIRWGIERRDTKELIGTIGFHALAQKHRRAEIGYEIIPEHWRNGFASEVISKVVSYGFSALGLSRIGAVVFTDNEASNRLLLKMGFQKEGVLRQYMYSKWDSI", "soluble on expression in E. coli": "not soluble"}, {"sequence": "AHHHHHHGSGSSRTFRTSWADLGNLAKSIPPHHHLNPFEGKWNKKLSKKAIIMWQINVNDNRKFLSDC", "soluble on expression in E. coli": "not soluble"}, {"sequence": "MSLEKESEWKGPFYFILGADPQFGLIKAWSTGDCDNGGDEWEQEIRLTEQAVQAINELNPKPKFFVLCGDLIHAMPGKPWRTEQTEDLKRVLRAVDRAIPLVLVSGNHDIGNTPTAETVEEFCRTWGDDYFSFWVGGVLFLVLNSQFYENPSKCPSLKQAQDQWLDEQLSIARQRHCQHAIVFQHIPLFLESIDEDDDYYFNLSKSTRKELADKFIHAGVRVVFSGHYHRNAGGTYQNLDMVVSSAIGCQLGRDPHGLRVVVVTAEKIVHRYYSLDELSEKGIEDDLMDLEGHHHHHH", "soluble on expression in E. coli": "not soluble"}, {"sequence": "MATIRKADYYYGALLSALVNGGLAPALFEKENDNRQIYEVTTNKASYIMYTKYNTNPSGSKDFTWSFVFSDHEIAEINKIYLEHSKEKEIMFAFVCAQKQPSDSNQVIAIVRWNEFLECVDLQRQQVRGTPRLSIKAVKGSPKLRLYGSKRADVLDGKDHTIKIERNRLNSL", "soluble on expression in E. coli": "not soluble"}, {"sequence": "MGSDKIHHHHHHMRNCIIAQSGGPTAVINASAVGIYEKNLETKYFDKVYFGINGIEGILNKNIIDSDSLNKDNVLNLKQTPSSGLGSCRYKLADYKINSYDYDRVINILDEYEIDTLFYIGGNDSMDTVMKFSQYCKNTTCKIKFIGIPKTIDNDLLGTDNCPGFGSAAKLISTLIMETYLDFSIYKNNGIFIVETMGRDTGWLAASSSLARLNDTPLVDLIYLPEIDFYEDKFIEDVRKIFKEKNKAYIVASEGIRDKYGNFICEQKTSAHDKFGHSQLGGVSNYLKNLIVSSSITTRVKTLELGVIQRCAMHLASDTDLKQAAEVGAYGIELSKKGYTGVMAIINRTCNNPYKYEVSHTDISKIANKTKYFPKEWINEECNYITDEALNYLYPLIQGKPDIKYKNGLPYFSIIY", "soluble on expression in E. coli": "not soluble"}, {"sequence": "MGSDKIHHHHHHMLYAYGARVWALPIFTHQVYLDKPTKPGDKTLSLATTGFDFYVGGRAVLMNGNKREMVDITGIEPDKLEIKRSLLNRFDTSTVVYPLRSAVLTDMPQLTRLSDEVATAQIRLQIHEHNGYAADIRHLPTYRGHPVLEPTSEWSEDITAQYLRLIKQLDNGTALPHYLDTAKNAFQLTNHRFLLDSIEAQHKLRQLFYYLRGRQKAIWVASSTSDLTLANDIVGKNLDIELVYYTTCLLKQAGRQDIRIECTDGSVHYRRILAATVSNNQTERLALDGEALNLKREQVAKISFLTLSRLESDTIDWVHHTDTVASVTVSFRGLRDELEV", "soluble on expression in E. coli": "not soluble"}, {"sequence": "FEAQKAKANKAVDGGGGSLVPRGSGGGGSERHFVYQFMGECYFTNGTQRIRYVTRYIYNREEYVRYDSDVGEHRAVTELGRPDAEYWNSQPEILERTRAELDTVCRHNYEGPETHTSLRRLEQPNVVISLSRTEALNHHNTLVCSVTDFYPAKIKVRWFRNGQEETVGVSSTQLIRNGDWTFQVLVMLEMTPRRGEVYTCHVEHPSLKSPITVEWKA", "soluble on expression in E. coli": "soluble"}, {"sequence": "MSLKSESKGGSNALVVSTFGLSEDIVKKDIIAPFEKENEAKVTLEVGNSADRFTKLKNNPNAGIDVIELAQANAAQGGKDGLFEKITEKEVPNLSQLTPGAKEVFESGAGVPIAVNSIGIVYNKEKLGKEIKNWDDLWSADLKGKISVPDVATTAGPLMLYVASEHAGQDITKDNGKAAFEAMKELKPNVVKTYSKSSDLANMFQSGEIEAAVVADFAVDIIQGAAENVTYIVPESGTYANYNTVNIPKKAQNKETAFKFVNARISEESQKAKAISLNEGPTNQQVTLSEKEAKNKTYGAIAERAKTVDFNFINSQLADWIDQWNRTMNQEGHHHHHH", "soluble on expression in E. coli": "soluble"}]}]}
